Measured values published in paper PMC3197879.

Target: YFP-PAX5-Foldon (not stated | phage T4) (UniProt P10104)
Experiment: SEC

In the case of “YFP-PAX5-Foldon (from UniProt P10104 458-484)”, the stoichiometry N is reported as 3.
